Molecular target: CanA from Pyrodictium abyssi (recombinant full-length CanA) (Pyrodictium abyssi)
Experiment: 1H NMR signal decay during polymerization; 0.97 mM CanA in 50 mM Tris-HCl, 50 mM NaCl, pH 7.5, 10% D2O, 0.4 mM DSS; polymerization started by MgCl2 and CaCl2 to 20 mM each; 298 K; about 42 h; intensity of -0.6 to 0.1 ppm fitted by single or double exponential

CanA from Pyrodictium abyssi (recombinant full-length CanA) (natural protein)
critical CanA concentration for polymerization: 2.48 µM

Source: publication PMC12326000
